# ± gives the uncertainty stated by the source.
# B1: Triacylglycerol hydrolase DDHD2, residues 389 to 447; numbered along this chain, O94830 (parent)
# chain: TLEEDLKKLQLSEFFDIFEKEKVDKEALALCTDRDLQEIGIPLGPRKKILNYFSTRKNS
# Variants of: B1
# Experiment: abundance fitness (aPCA) (normalised: wild type 0, dead -1); higher = more abundant; growth selection in yeast, the domain comes from the species named
# Conditions: Homo sapiens
row,Variant,abundance fitness
1,TLEEDLKKLQLSEFFDIFEKEKVDKEALALCTDRDLQEIGIPLGPRCKILNYFSTRKNS [K47C],0.136 ± 0.081
2,TLEEDLKKLQLSEFFDIFEKEKVDKEALALCTDRDLQEIGIPLGPRSKILNYFSTRKNS [K47S],0.225 ± 0.069
3,TLEEDLKKLQLSEFFDIFEKEKVDAEALALCTDRDLQEIGIPLGPRKKILNYFSTRKNS [K25A],-0.05 ± 0.086
4,TLEEDLKKLQLSEFFDIREKEKVDKEALALCTDRDLQEIGIPLGPRKKILNYFSTRKNS [F18R],-0.685 ± 0.085
5,TLEEDLKKLQLSEFFDIFEKEKVDKEALALCTDRDLQEIGIPLGPRKKILNYFSPRKNS [T55P],-0.079 ± 0.1
6,TLEEDLKKLQLSEFFDIFEKEKVDKEALALCTDRDLQEIGIPLGPRKKILNYFSWRKNS [T55W],-0.295 ± 0.11
7,TLEEDLKKLQLSEFFDIFEKEKVDKEALALCTDRDLQEIGIPLGPRKKILNYFSYRKNS [T55Y],-0.159 ± 0.1
8,TLEEDLKKLQLSEFFDIFEKEKVDKEALAECTDRDLQEIGIPLGPRKKILNYFSTRKNS [L30E],0.49 ± 0.09
9,TLEEDLKKLQLSEFFDIFEKEKVDKEALAICTDRDLQEIGIPLGPRKKILNYFSTRKNS [L30I],0.513 ± 0.1
10,TLEEDLKKLQLSEFFDIFEKEKVDKEALAMCTDRDLQEIGIPLGPRKKILNYFSTRKNS [L30M],0.483 ± 0.085
11,TLEEDLKKLQLSEFFDIFEKEKVDKEALALCTDEDLQEIGIPLGPRKKILNYFSTRKNS [R34E],0.463 ± 0.084
12,TLEEDLKKLQLSEFFDIFEKEKVDKEALALCTDADLQEIGIPLGPRKKILNYFSTRKNS [R34A],0.216 ± 0.077
13,GLEEDLKKLQLSEFFDIFEKEKVDKEALALCTDRDLQEIGIPLGPRKKILNYFSTRKNS [T1G],0.103 ± 0.13
14,KLEEDLKKLQLSEFFDIFEKEKVDKEALALCTDRDLQEIGIPLGPRKKILNYFSTRKNS [T1K],-0.425 ± 0.24
15,TLEEDLKKLQLSEFFDIFEKEKVDKEALALCTDRDLQEQGIPLGPRKKILNYFSTRKNS [I39Q],-0.146 ± 0.086
16,TLEEDLKKLQLSEFFDIFEKEKVDKEALALCTDRDLQEHGIPLGPRKKILNYFSTRKNS [I39H],-0.341 ± 0.19
17,TLEEDLKKLQLSEFFDIFEKEKVDKEALALCTDRQLQEIGIPLGPRKKILNYFSTRKNS [D35Q],0.271 ± 0.088
18,TLEEDLKKLQLSEFFDIFEKEKVDKEDLALCTDRDLQEIGIPLGPRKKILNYFSTRKNS [A27D],0.437 ± 0.11
19,TLEEDLKKLQLSEFFDIFEKEKVDKECLALCTDRDLQEIGIPLGPRKKILNYFSTRKNS [A27C],0.429 ± 0.094
20,TLEEDLKKLQLSEFFDIFEKEKVDKEALALCTDRDLMEIGIPLGPRKKILNYFSTRKNS [Q37M],-0.024 ± 0.087
21,TLEEDLKKLQLSEFFDIFEKEKVDKEALALCTDRDLHEIGIPLGPRKKILNYFSTRKNS [Q37H],-0.229 ± 0.14
22,TLEEDLKKLQLSEFFDIFEKEKVDKEALALCTDRDLEEIGIPLGPRKKILNYFSTRKNS [Q37E],0.241 ± 0.097
23,TLEEDLKKLQLSEFFDIFEKEKVDKEALALCTDRDLVEIGIPLGPRKKILNYFSTRKNS [Q37V],-0.048 ± 0.067

row,Variant,abundance fitness
1,TLEEDLKKLQLSEFFDIFEKEKVDKEALALCTDRDLQEIGIPLGPRKKILNYFSTRWNS [K57W],-0.525 ± 0.086
2,TLEEDLKKLQLSEFFDIFEKEKVDKEALALCTDRDLQEIGIPLGPRKKILNYFSTRLNS [K57L],-0.219 ± 0.071
3,TLEEDLKKLQLSEFFDIFEKEKVDKEALALCTDRDLQEIGIPLGPRKKILNYFSTQKNS [R56Q],0.143 ± 0.11
4,TLEEDLKKLQLSEFFDIFEKEKVDKEALALCTLRDLQEIGIPLGPRKKILNYFSTRKNS [D33L],-0.339 ± 0.069
5,TLEEDLKKLQLSEFFDIFEKEKVDKEALALCTFRDLQEIGIPLGPRKKILNYFSTRKNS [D33F],-0.609 ± 0.12
6,TLEEDLKKLQLSEFFDIFEKEKVDKEALALCTTRDLQEIGIPLGPRKKILNYFSTRKNS [D33T],-0.238 ± 0.093
7,TLEEDLKKLQLSEFFDIFEKEKVDKEALALCTGRDLQEIGIPLGPRKKILNYFSTRKNS [D33G],-0.199 ± 0.069
8,TLESDLKKLQLSEFFDIFEKEKVDKEALALCTDRDLQEIGIPLGPRKKILNYFSTRKNS [E4S],-0.332 ± 0.061
9,TLEEDLKKLQLSEFFDIFEKEKVDKEALALCTDRDLQEIGIPLGVRKKILNYFSTRKNS [P45V],0.411 ± 0.063
10,TLEEDLKKLQLSEFFDIFEKEKVDKEALALCTDRDLQEIGIPLGKRKKILNYFSTRKNS [P45K],-0.285 ± 0.12
11,TLEEDLKKLQLSEFFDIFEKEKVDKEALALCTDRDLQEIGIPLGPRKKILNYFCTRKNS [S54C],-0.285 ± 0.1
12,TLEEDCKKLQLSEFFDIFEKEKVDKEALALCTDRDLQEIGIPLGPRKKILNYFSTRKNS [L6C],-0.888 ± 0.27
13,TLEEDLKKLQLSEFFDIFEKEKVDKEALALCTDRDLQEIGIPLGPRKNILNYFSTRKNS [K48N],-0.344 ± 0.11
14,TLEEDLKKLQLSEFFDIFEKEKVDKEALALCTDRDLQEIGIPLGPRKAILNYFSTRKNS [K48A],0.106 ± 0.068
15,TLEEDLKKLQLSEFFDIFEKEKVDKEALALCTDRDLQEIGIPLGPRKKKLNYFSTRKNS [I49K],-0.467 ± 0.13
16,TLEEDLKKLQLSEFFDIFEKEKVDKEALALCTDRDLQEIGIPLGPRKKTLNYFSTRKNS [I49T],-0.301 ± 0.1
17,TLEEDLKKLQLSEFFDIFEKEKVDKEALALCTDRDLQEIGIPLGPRKKQLNYFSTRKNS [I49Q],-0.307 ± 0.11
18,TLEEDLKKLQLSEFFDIFEKEKVDKEALALCTDRDLQEIGIPLGPMKKILNYFSTRKNS [R46M],-0.431 ± 0.15
19,TLEECLKKLQLSEFFDIFEKEKVDKEALALCTDRDLQEIGIPLGPRKKILNYFSTRKNS [D5C],-0.033 ± 0.1
20,TLEEDLKKLQLSEFFWIFEKEKVDKEALALCTDRDLQEIGIPLGPRKKILNYFSTRKNS [D16W],-0.036 ± 0.058
21,TLEEDLKKLQLSEFFDIFEKEWVDKEALALCTDRDLQEIGIPLGPRKKILNYFSTRKNS [K22W],-0.729 ± 0.13
22,TLEEDLKKLQLSEFFDIFEKEKVDKEALALCTDRDLQEIGQPLGPRKKILNYFSTRKNS [I41Q],-0.144 ± 0.1

# From the Human Domainome abundance scans (Beltran et al. 2025)
